Measurements reported in paper PMC9573943, “Contribution of the 12–17 hydrophobic region of islet amyloid polypeptide in self-assembly and cytotoxicity” (Frontiers in Molecular Biosciences, 2022).
Bridge positions count the residues as written; N and C are the ends. Ends that are not written are not given here.

Columns and labels:
[1] = Peptide self-assembly under fully quiescent conditions (CD, ThT and ANS fluorescence, TEM, AFM); assay type: physicochemical; conditions: 50 μM peptide; for Assemblies observed by TEM after 48 h incubation: negative stain TEM; for Overall effect of the substitution on amyloid formation, in words: CD, ThT, ANS, TEM, compared with unmodified IAPP; for Incubation time at which the random coil to β-sheet conformational transition is seen (far-UV CD) / Secondary conformation / conformational transition over incubation (far-UV CD), in words: fully quiescent; for Incubation time at which the random coil to β-sheet conformational transition is seen (far-UV CD): microtubes, diluted to 25 μM for CD; for ThT fluorescence of incubated peptide, in words: diluted to 25 μM with 40 μM ThT; for Secondary conformation / conformational transition over incubation (far-UV CD), in words: up to 7 days
Protocol: Solutions were prepared by dissolving the peptide at a concentration of 50 μM in 20 mM Tris-HCl, pH 7.4, and were incubated at room temperature without agitation in 1.5 ml Eppendorf microtubes. For IAPP12-17, the lyophilized peptide was dissolved in 20 mM acetate pH 6.5 in the presence of 3% DMSO, or HFIP, at a final concentration of 500 μM and the peptide solution was incubated at 37 °C under constant rotational agitation.
At the indicating time of incubation, peptide solutions were diluted to 25 μM in presence of 40 μM ThT, or 25 μM 8-anilino-1-naphthalenesulfonic acid (ANS). Fluorescence was measured in 10-mm pathlength microcells using a PTI QuantaMaster spectrofluorometer. For ThT, excitation was set at 440 nm, and the emission spectrum from 450 to 550 nm was recorded. For ANS, the excitation was set at 355 nm, and the emission scan was recorded from 385 to 585 nm.
After incubation, peptide solutions were diluted in water to 25 μM and incorporated into a 2-mm path length quartz cell. For IAPP12-17, the solution was diluted to 150 μM. Far-UV CD spectra were recorded from 190 to 260 nm using a Jasco J-815 CD spectropolarimeter at 25°C. The wavelength step was set at 0.5 nm with an average time of 10 s per scan at each wavelength. Spectra were background-subtracted with buffer solution. Raw data were converted to mean residue ellipticity (MRE): MRE=Mean residue weight (g/mol)X CD signal (deg)/10 X pathlength (cm) X peptide concentration (g/mL)
After incubation, peptide solutions were diluted to 10 μM, or 100 μΜ for IAPP12-17, before being applied on glow-discharged carbon films on 300-mesh copper grids. Samples were adsorbed and negatively stained with 1.5% uranyl formate for 45 s. Images were recorded using a FEI Tecnai G2 Spirit Twin microscope operating at 120 kV and equipped with a Gatan Ultrascan scan 4,000 4k × 4k CCD camera system.
After incubation, peptide solutions were diluted in 1% acetic acid to a concentration of 7.5 μΜ. […] Images were recorded using Veeco/Bruker multimode AFM instrument using ScanAsyst-air mode with a silicon tip (2–12 nm tip radius, 0.4 N/m force) on a nitride lever. Images were taken at 0.977 Hz and 512 scan/min.

INS-1E cells [2] = experiment: Cell viability by resazurin reduction; assay type: cell-based, Rat; conditions: freshly dissolved peptide up to 50 μM, 24 h, at least five assays
Protocol: (§1) Rat INS-1E cells were cultured in treated black-wall clear-bottom 96-well plates at a density of 25,000 cell/well in RPMI-1640 medium supplemented with 10% FBS, 2 mM L-glutamine, 100 U/ml penicillin, 100 μg/ml streptomycin, 10 mM HEPES, 1 mM sodium pyruvate and 50 μM β-mercaptoethanol. After 48 h of incubation at 37°C in 5% CO2, cells were treated with 50 μL of peptide freshly dissolved in 20 mM Tris-HCl, pH 7.4. […] Cell viability (%) was calculated from the ratio of the fluorescence of the treated cells to the vehicle-treated cells. Data of at least five assays performed with different peptide lots were averaged and expressed as the mean ± S.D. Statistical analysis was performed using Student’s t test, and statistically significant difference was established at (*) p < 0.05; (**) p < 0.005; (***) p < 0.0005. For Live/Dead viability assay, cells were plated in 12-well plates at density of 250,000 cell/well for 48 h before treatment with 25 μM peptide.

INS-1E cells [3] = experiment: Live/Dead viability assay (calcein-AM / ethidium homodimer-1, fluorescence microscopy); assay type: cell-based, Rat; conditions: 25 μM freshly solubilized peptide, 24 h, calcein-AM (green, live) and ethidium homodimer-1 (red, dead)
Protocol: as §1

[4] = Kinetics of amyloid formation monitored by ThT fluorescence; assay type: physicochemical; conditions: 40 μM ThT, 20 mM Tris-HCl pH 7.4, 25°C, no agitation
Protocol: Aggregation mixtures were prepared by dissolving the lyophilized peptide at a concentration of 50 μM in 20 mM Tris-HCl, pH 7.4. Assays were performed at 25°C without stirring in sealed black-wall clear-bottom 96-well nonbinding surface plates with 100 μL/well. Final peptide concentrations were 12.5 and 25 μM, and thioflavin T (ThT) concentration was fixed at 40 μM. Fluorescence was measured every 10 min (excitation: 440 nm, emission: 485 nm) and data from triplicate wells were averaged, corrected by subtracting the blank control, and plotted as ThT fluorescence vs. time. Data were normalized with maximum ThT fluorescence intensity obtained for unmodified IAPP. Data were fitted to a sigmoidal Boltzmann model: Y=Yo+(Ymax−Yo)/1+e^−(T−T50)/ K where T 50 is the time required to reach half of the maximum fluorescence intensity, k is the apparent first-order constant, and Y max and Y 0 are the maximum and initial ThT fluorescence values. Lag time corresponds to T50 - 2/k. Data of at least six assays performed with different peptide lots were averaged and expressed as the mean ± S.D. Statistical analysis was performed using Student’s t test, and statistically significant difference between IAPP and analogs was established at (*) p < 0.05; (**) p < 0.005; (***) p < 0.0005.

[5] = 20 mM Tris-HCl pH 7.4, quiescent
[6] = 20 mM Tris-HCl pH 7.4, room temperature

Substance	Assemblies observed by TEM after 48 h incubation [1, 5]	Overall effect of the substitution on amyloid formation, in words [1, 5]	Incubation time at which the random coil to β-sheet conformational transition is seen (far-UV CD) [1, 6]	Cytotoxicity compared with unmodified IAPP, in words (INS-1E cells [2])	ThT fluorescence of incubated peptide, in words [1, 5]	Secondary conformation / conformational transition over incubation (far-UV CD), in words [1, 6]	also measured
A13G: full-length IAPP with Ala13 substituted by Gly (KCNTATCATQRLGNFLVHSSNNFGAILSSTNVGSNTY; disulfide 2-7; ends not checked; UniProt P10997 34-70, looked up, variant A13G)	presence of fibrillar aggregates	accelerates IAPP amyloid self-assembly	≤ 6 h	higher cytotoxicity compared to unmodified IAPP			
A13P: full-length IAPP with Ala13 substituted by Pro (KCNTATCATQRLPNFLVHSSNNFGAILSSTNVGSNTY; disulfide 2-7; ends not checked; UniProt P10997 34-70, looked up, variant A13P)	Prototypical fibrils	accelerated amyloid formation	4 h	increased the cytotoxicity of IAPP at 12.5 and 25 μM			Incubation time at which ThT and ANS positive signal arises ([1]; 20 mM Tris-HCl pH 7.4, quiescent, diluted to 25 μM with 40 μM ThT or 25 μM ANS): 6 h
F15P: full-length IAPP with Pro at position Phe15 (KCNTATCATQRLANPLVHSSNNFGAILSSTNVGSNTY; disulfide 2-7; ends not checked; UniProt P10997 34-70, looked up, variant F15P)	absence fibrillar aggregates						Assemblies observed by AFM after 96 h incubation ([1]; 20 mM Tris-HCl pH 7.4, room temperature, no agitation, 96 h): typical fibrils
L12A: full-length IAPP with Leu→Ala substitution at position 12 (KCNTATCATQRAANFLVHSSNNFGAILSSTNVGSNTY; disulfide 2-7; ends not checked; UniProt P10997 34-70, looked up, variant L12A)	long and twisted fibrils			reduced IAPP toxicity	absence of a ThT-signal	remained mainly under a random coil structure after a week of incubation	ANS fluorescence of incubated peptide, in words ([1]; 20 mM Tris-HCl pH 7.4, quiescent, diluted to 25 μM with 25 μM ANS): low ANS fluorescence; Cell death in Live/Dead assay, in words (INS-1E cells [3]): decreased toxicity compared to unmodified IAPP; Increase of ThT fluorescence signal ([4]; 12.5 μM peptide): no increase of ThT fluorescence signal could be detected; Lag time of amyloid formation ([4]; 25 μM peptide, nonbinding surface 96-well plate, read every 10 min, lag time = T50 - 2/k, mean ± S.D. of at least six assays): 13.5 ± 4.1 h
L16P: full-length IAPP with Leu16 substituted by Pro (KCNTATCATQRLANFPVHSSNNFGAILSSTNVGSNTY; disulfide 2-7; ends not checked; UniProt P10997 34-70, looked up, variant L16P)		completely inhibited amyloid formation		less cytotoxic than unmodified IAPP	absence of a ThT and ANS signal	random coil conformation observed after 7 days incubation	
N14P: full-length IAPP with Pro at position Asn14 (KCNTATCATQRLAPFLVHSSNNFGAILSSTNVGSNTY; disulfide 2-7; ends not checked; UniProt P10997 34-70, looked up, variant N14P)			24 h				Assemblies observed by AFM after 24 h incubation ([1]; 20 mM Tris-HCl pH 7.4, room temperature, no agitation, 24 h): dense network of fibrils
